Data reported in patent publication US20260216242A1, “ALPP-SPECIFIC VARIANT ANTIGEN BINDING MOLECULES” (ALMAC DISCOVERY LIMITED, priority 2022, published 2026).

Experiments:
[1] = molecular target: T1, ALPP expressed on the surface of CHO cells (CHO-ALPP) (Homo sapiens, UniProt P05187); experiment: Cell-surface binding by flow cytometry, CHO-ALPP; settings: VHH proteins
T1 construct: expressed in transfected cells
Method: (§1) C-terminal His tagged VHH proteins were assessed for ALPP, ALPPL2, ALPI and ALPL cell-surface binding by flow cytometry. Binders encompassing different epitope bins were screened on CHO cells stably expressing ALPP, ALPPL2, ALPI or ALPL. High levels of cell-surface proteins expression were confirmed for each of the cell-lines by flow cytometry.
(§2) Cell surface binding of test agents to hALPP isoforms was characterized in four CHO-ALPP isoform stably transfected cell lines (CHO-ALPP, CHO-ALPPL2, CHO-ALPI and CHO-ALPL) and the resulting KDapp values determined. Adherent cells were detached from tissue culture flasks by incubating with 0.1% EDTA/PBS solution at 37° C. for ~10 minutes or until cells detached easily. […] Binding of VHH (His6 tagged) agents was determined by adding 100 μl of anti-x6His tag Ab (Abcam) per cell pellet sample as appropriate and incubating on ice for 30 mins. […]
(§3) VHH-hFc proteins were assessed for human ALPP, ALPPL2, ALPI and ALPL cell-surface binding by flow cytometry. […]
(§4) Cell surface binding of test agents to hALPP isoforms was characterized in four CHO-ALPP isoform transfectant cell lines (CHO-ALPP, CHO-ALPPL2, CHO-ALPI and CHO-ALPL) and the resulting KDapp values determined. […] Binding of VHH-hFc agents was determined by adding 100 μl of Fitc-anti-human Ab (ThermoFisher) and incubating for 30 mins on ice in the dark. […]

[2] = molecular target: T2, ALPPL2 expressed on the surface of CHO cells (CHO-ALPPL2) (Homo sapiens, UniProt P10696); experiment: Cell-surface binding by flow cytometry, CHO-ALPPL2; settings: VHH His proteins
T2 construct: expressed in transfected cells
T2 sequence (P10696 20-503 limits assumed): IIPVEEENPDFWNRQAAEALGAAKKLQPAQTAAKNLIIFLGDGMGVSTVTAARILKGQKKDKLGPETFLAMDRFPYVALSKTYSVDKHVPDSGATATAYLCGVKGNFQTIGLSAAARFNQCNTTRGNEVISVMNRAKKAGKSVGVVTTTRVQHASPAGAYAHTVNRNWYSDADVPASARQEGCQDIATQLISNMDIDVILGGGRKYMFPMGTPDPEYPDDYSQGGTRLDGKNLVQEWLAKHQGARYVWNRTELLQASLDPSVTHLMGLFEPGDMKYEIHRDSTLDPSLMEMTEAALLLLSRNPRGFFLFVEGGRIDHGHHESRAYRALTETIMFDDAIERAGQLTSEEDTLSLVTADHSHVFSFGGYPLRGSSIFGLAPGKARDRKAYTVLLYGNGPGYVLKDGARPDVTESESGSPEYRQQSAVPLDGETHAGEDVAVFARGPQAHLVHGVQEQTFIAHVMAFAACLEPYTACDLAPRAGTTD
Method: as §1, §2, §3, §4

T1 sequence (P05187 23-506 limits assumed): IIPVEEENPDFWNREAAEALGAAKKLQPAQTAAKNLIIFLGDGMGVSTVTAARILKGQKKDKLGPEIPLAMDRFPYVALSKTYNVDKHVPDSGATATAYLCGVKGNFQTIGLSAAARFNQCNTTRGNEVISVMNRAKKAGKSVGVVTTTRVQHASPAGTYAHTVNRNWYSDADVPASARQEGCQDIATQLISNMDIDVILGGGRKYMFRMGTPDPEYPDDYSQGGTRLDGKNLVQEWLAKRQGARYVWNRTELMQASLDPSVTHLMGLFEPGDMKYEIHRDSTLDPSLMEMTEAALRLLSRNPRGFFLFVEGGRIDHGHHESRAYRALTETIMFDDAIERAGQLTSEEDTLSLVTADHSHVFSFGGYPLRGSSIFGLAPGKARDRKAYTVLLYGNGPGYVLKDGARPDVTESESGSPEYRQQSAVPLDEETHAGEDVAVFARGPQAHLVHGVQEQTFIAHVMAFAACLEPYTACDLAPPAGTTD

- binding preference ALPP versus ALPPL2 on CHO cells [1]: preferential binding to ALPP over ALPPL2
- KDapp CHO-ALPPL2 [2]: Binding
B1: D10: ALPP targeting VHH domain, SEQ ID NO: 28 (protein)
VHH: QVQLVESGGGLVQPGGSLRLSCAASGSIFSVNTMGWYRQAPGKQRDLVAVATSGGTIHYADSVKGRFTISRDNAKNTVYLQMNSLKPEDTAVYYCNLVVPYGMIAGDHDYWGQGTKVTVSS
